Data on one molecule can be found in patent publication US20160303225A1 (HENRY M JACKSON FOUNDATION FOR THE ADVANCEMENT OF MILITARY …, published 2016).

This experiment has as its target T1, modified HCMV gB (homotrimeric complex of modified human cytomegalovirus glycoprotein B) (human cytomegalovirus (HCMV), UniProt F5HB53 25-750).
T1 construct: It runs as a 360 kDa homotrimer under native or partially reducing conditions and as a 120 kDa monomer under fully reducing or denaturing conditions; also called trimeric HCMV gB; HCMV trimeric gB
The experiment can be described thus: purified proteins mixed 1:1 (molecular ratio) and incubated at room temperature for 2 hours; Western blot under non-reducing conditions. For orientation: Immunoblotting shows a protein as a band on a membrane.

B1: HCMV gH/gL fusion protein (other)
chain: DATVSVAPTVAEKVPAECPELTRRCLLGEVFQGDKYESWLRPLVNVTRRDGPLSQLIRYRPVTPEAANSVLLDDAFLDTLALLYNNPDQLRALLTLLSSDTAPRWMTVMRGYSECGDGSPAVYTCVDDLCRGYDLTRLSYGRSIFTEHVLGFELVPPSLFNVVVAIRNEATRTNRAVRLPVSTAAAPEGITLFYGLYNAVKEFCLRHQLDPPLLRHLDKYYAGLPPELKQTRVNLPAHSRYGPQAVDARGGGGSGGGGSGGGGSYGAEAISEPLDKAFHLLLNTYGRPIRFLRENTTQCTYNSSLRNSTVVRENAISFNFFQSYNQYYVFHMPRCLFAGPLAEQFLNQVDLTETLERYQQRLNTYALVSKDLASYRSFSQQLKAQDSLGEQPTTVPPPIDLSIPHVWMPPQTTPHGWTESHTTSGLHRPHFNQTCILFDGHDLLFSTVTPCLHQGFYLIDELRYVKITLTEDFFVVTVSIDDDTPMLLIFGHLPRVLFKAPYQRDNFILRQTEKHELLVLVKKDQLNRHSYLKDPDFLDAALDFNYLDLSALLRNSFHRYAVDVLKSGRCQMLDRRTVEMAFAYALALFAAARQEEAGAQVSVPRALDRQAALLQIQEFMITCLSQTPPRTTLLLYPTAVDLAKRALWTPNQITDITSLVRLVYILSKQNQQHLIPQWALRQIADFALKLHKTHLASFLSAFARQELYLMGSLVHSMLVHTTERREIFIVETGLCSLAELSHFTQLLAHPHHEYLSDLYTPCSSSGRRDHSLERLTRLFPDATVPTTVPAALSILSTMQPSTLETFPDLFCLPLGESFSALTVSEHVSYVVTNQYLIKGISYPVSTTVVGQSLIITQTDSQTKCELTRNMHTTHSITAALNISLENCAFCQSALLEYDDTQGVINIMYMHDSDDVLFALDPYNEVVVSSPRTHYLMLLKNGTVLEVTDVVVDATDSRLHHHHHH
notes: It was expressed in CHO DG44 cells; also called monomeric gH/gL; gH/gL heterodimer
Take B1: the binding result was “binds”.
